Paper PMC7049163 (Proceedings of the National Academy of Sciences of the …, 2020)

Biological target: the molecule itself
Experiment: crystal structure

B1: copper-containing nitrite reductase from Geobacillus thermodenitrificans (enzyme)
chain: ESKNKTAATQQSEPNVIAAHKGVNQAPVPLKMERVGPHDVHIEMTAQITDIEIDKGKIYKAWTFNGQAPGPLVVVNEGDTIHFTLKNMDPVVPHSMDFHAVHASPSKDFIDVMPNKSGTFTYPANKPGVFMYHCGTKPVLQHIANGMHGVIIVKPKNGYPTDKEVDREYVLIQNEWYKYNDMNDFQNGVPSYVVFSSKALKPGDPNTNGDTFTLKEKPLLAKVGEKIRLYINNVGPNEVSSFHVVGTVFDDVYLDGNPNNHLQGMQTVMLPASGGAVVEFTVTRPGTYPIVTHQFNHAQKGAVAMLKVTETGEDDGTETSGH
  stoichiometry N: 3
